# Patent US20220411483A1 (Chugai, published 2022)
# Substitutions are numbered along the chain they refer to.
# B1: IL6R-BP249/IL6R-L (antibody, human IgG1, kappa, name in EU numbering)
# heavy: QVQLQESGPGLVKPSETLSLTCAVSGHSISHDHAWSWVRQPPGEGLEWIGFISYSGITNYNPSLQGRVTISRDNSKNTLYLQMNSLRAEDTAVYYCARSLARTTAMDYWGEGTLVTVSSASTKGPSVFPLAPSSKSTSGGTAALGCLVKDYFPEPVTVSWNSGALTSGVHTFPAVLQSSGLYSLSSVVTVPSSSLGTQTYICNVNHKPSNTKVDKKVEPKSCDKTHTCPPCPAPDYLGDDSVFLFPPKPKDTLMISRTPEVTCVVVDVSDEDGEVKFNWYVDGVEVHNAKTKPREEQDNSTYRVVSVLTVLHQDWLNGKEYKCKVSNKALPRPIEKTISKAKGQPREPQVYTLPPSRDELTKNQVSLTCLVKGFYPSDIAVEWESNGQPENNYKTTPPVLDSDGSFFLYSKLTVDKSRWQQGNVFSCSVMHEALHNHYTQESLSLSP
# light: not shown
# notes: human IgG1
# B2: IL6R-BP264/IL6R-L (antibody, human IgG1, kappa, name in EU numbering)
# heavy: B1 heavy with Y236L, D270E
# light: not shown
# notes: human IgG1
# B3: IL6R-BP426/IL6R-L (antibody, human IgG1, kappa, name in EU numbering)
# heavy: B1 heavy with Y236L, S269A, D270E, E271D, D298Y
# light: not shown
# notes: human IgG1
# B4: IL6R-BP268/IL6R-L (antibody, human IgG1, kappa, name in EU numbering)
# heavy: B1 heavy with Y236L, D270E, R332A
# light: not shown
# notes: human IgG1
# B5: IL6R-BP507/IL6R-L (antibody, human IgG1, kappa, name in EU numbering)
# heavy: B1 heavy with Y236L, V266I, S269A, D270E, E274P, D298Y
# light: not shown
# notes: human IgG1
# B6: IL6R-BP535/IL6R-L (antibody, human IgG1, kappa, name in EU numbering)
# heavy: B1 heavy with Y236L, V266I, S269G, D270E, A329G, P398M
# light: not shown
# notes: human IgG1
# B7: IL6R-BP552/IL6R-L (antibody, human IgG1, kappa, name in EU numbering)
# heavy: B1 heavy with Y236L, V266I, S269A, D270E, E274D
# light: not shown
# notes: human IgG1
# B8: IL6R-BP490/IL6R-L (antibody, human IgG1, kappa, name in EU numbering)
# heavy: B1 heavy with D235E, Y236L, V266I, S269A, D270E, D298Y
# light: not shown
# notes: human IgG1
# B9: IL6R-BP501/IL6R-L (antibody, human IgG1, kappa, name in EU numbering)
# heavy: B1 heavy with D235E, Y236L, V266I, S269A, D270E, D298Y, R332A
# light: not shown
# notes: human IgG1
# B10: IL6R-BP553/IL6R-L (antibody, human IgG1, kappa, name in EU numbering)
# heavy: B1 heavy with Y236L, V266I, S269A, D270E, E274D, D298Y
# light: not shown
# notes: human IgG1
# B11: IL6R-BP532/IL6R-L (antibody, human IgG1, kappa, name in EU numbering)
# heavy: B1 heavy with Y236L, V266I, D270E, P398M
# light: not shown
# notes: human IgG1
# B12: IL6R-BP555/IL6R-L (antibody, human IgG1, kappa, name in EU numbering)
# heavy: B1 heavy with D235E, Y236L, V266I, S269A, D270E, E274D
# light: not shown
# notes: human IgG1
# B13: IL6R-BP445/IL6R-L (antibody, human IgG1, kappa, name in EU numbering)
# heavy: B1 heavy with Y236L, V266I, S269A, D270E, D298Y
# light: not shown
# notes: human IgG1
# B14: IL6R-BP531/IL6R-L (antibody, human IgG1, kappa, name in EU numbering)
# heavy: B1 heavy with Y236L, V266I, S269G, D270E, P398M
# light: not shown
# notes: human IgG1
# B15: IL6R-BP495/IL6R-L (antibody, human IgG1, kappa, name in EU numbering)
# heavy: B1 heavy with D235E, Y236L, S269G, D270E
# light: not shown
# notes: human IgG1
# B16: IL6R-BP493/IL6R-L (antibody, human IgG1, kappa, name in EU numbering)
# heavy: B1 heavy with D235E, Y236L, D239G, V266I, S269A, D270E, R332A
# light: not shown
# notes: human IgG1
# B17: IL6R-BP561/IL6R-L (antibody, human IgG1, kappa, name in EU numbering)
# heavy: B1 heavy with Y236L, E274D
# light: not shown
# notes: human IgG1
# B18: IL6R-BP534/IL6R-L (antibody, human IgG1, kappa, name in EU numbering)
# heavy: B1 heavy with Y236L, V266I, D270E, P398L
# light: not shown
# notes: human IgG1
# B19: IL6R-BP506/IL6R-L (antibody, human IgG1, kappa, name in EU numbering)
# heavy: B1 heavy with Y236L, V266I, S269A, D270E, E274P
# light: not shown
# notes: human IgG1
# B20: IL6R-BP537/IL6R-L (antibody, human IgG1)
# heavy: B1 heavy with D235E, Y236L, V266I, S269G, D270E, D298Y
# light: not shown
# notes: human IgG1
# B21: IL6R-BP435/IL6R-L (antibody, human IgG1, kappa, name in EU numbering)
# heavy: B1 heavy with Y236L, K328A, I334T
# light: not shown
# notes: human IgG1
# B22: IL6R-BP557/IL6R-L (antibody, human IgG1, kappa, name in EU numbering)
# heavy: B1 heavy with D235E, Y236L, S269G
# light: not shown
# notes: human IgG1
# B23: IL6R-BP480/IL6R-L (antibody, human IgG1, kappa, name in EU numbering)
# heavy: B1 heavy with Y236L, V268L, D270E, E271D, D298Y, R332A
# light: not shown
# notes: human IgG1
# B24: IL6R-G1dGSS/IL6R-L (antibody, human IgG1, kappa)
# heavy: QVQLQESGPGLVKPSETLSLTCAVSGHSISHDHAWSWVRQPPGEGLEWIGFISYSGITNYNPSLQGRVTISRDNSKNTLYLQMNSLRAEDTAVYYCARSLARTTAMDYWGEGTLVTVSSASTKGPSVFPLAPSSKSTSGGTAALGCLVKDYFPEPVTVSWNSGALTSGVHTFPAVLQSSGLYSLSSVVTVPSSSLGTQTYICNVNHKPSNTKVDKKVEPKSCDKTHTCPPCPAPELLGGPSVFLFPPKPKDTLMISRTPEVTCVVVDVSHEDPEVKFNWYVDGVEVHNAKTKPREEQYNSTYRVVSVLTVLHQDWLNGKEYKCKVSNKGLPSSIEKTISKAKGQPREPQVYTLPPSRDELTKNQVSLTCLVKGFYPSDIAVEWESNGQPENNYKTTPPVLDSDGSFFLYSKLTVDKSRWQQGNVFSCSVMHEALHNHYTQKSLSLSP
# light: not shown
# B25: IL6R-P556/IL6R-L (antibody, human IgG1, kappa)
# heavy: B1 heavy with Y236L, D298Y, R332A, E441K
# light: not shown
# B26: IL6R-P555/IL6R-L (antibody, human IgG1, kappa)
# heavy: B1 heavy with D235E, Y236L, D298Y, R332A, E441K
# light: not shown
# B27: IL6R-P587/IL6R-L (antibody, human IgG1, kappa)
# heavy: B1 heavy with Y236L, D239G, V266I, S269A, D270E, D298Y, R332A, E441K
# light: not shown
# Molecular target: T1, FcγRIa extracellular domain with C-terminal His tag (human, UniProt P12314 16-292)
# T1 construct: also called FcgRIa; CD64; not shown: His tag at the C terminus
# T1 sequence (P12314 16-292): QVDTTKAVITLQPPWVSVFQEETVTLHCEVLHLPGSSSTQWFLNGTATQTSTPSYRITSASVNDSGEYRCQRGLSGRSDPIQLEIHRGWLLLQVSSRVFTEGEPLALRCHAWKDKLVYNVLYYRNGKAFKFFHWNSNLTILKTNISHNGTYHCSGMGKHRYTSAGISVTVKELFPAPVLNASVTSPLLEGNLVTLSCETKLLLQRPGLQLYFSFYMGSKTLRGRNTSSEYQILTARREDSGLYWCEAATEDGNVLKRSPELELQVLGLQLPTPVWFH
# Experiment: SPR, antibody captured, FcgR analyte
row,Binder,Kd
1,B1,7 nM
2,B2,7.4 nM
3,B3,1 nM
4,B4,4.5 nM
5,B5,2.6 nM
6,B6,11 nM
7,B7,3.2 nM
8,B8,4.5 nM
9,B9,2.1 nM
10,B10,3.4 nM
11,B11,12 nM
12,B12,9.4 nM
13,B13,2 nM
14,B14,9.4 nM
15,B15,8.3 nM
16,B16,0.82 nM
17,B17,9.4 nM
18,B18,9.3 nM
19,B19,3.1 nM
20,B20,29 nM
21,B21,1 nM

# Molecular target: T2, FcγRIIa R type extracellular domain with C-terminal His tag (human, UniProt P12318 34-217)
# T2 construct: extracellular domain; also called FcgRIIaR; not shown: His tag at the C terminus
# T2 sequence (looked up): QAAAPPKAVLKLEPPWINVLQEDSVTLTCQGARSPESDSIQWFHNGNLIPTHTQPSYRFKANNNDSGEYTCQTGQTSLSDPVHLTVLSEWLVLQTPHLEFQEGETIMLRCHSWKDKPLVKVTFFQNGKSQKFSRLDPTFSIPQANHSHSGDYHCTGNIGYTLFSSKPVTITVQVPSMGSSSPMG
# Experiment: SPR, antibody captured, FcgR analyte
row,Binder,Kd
1,B2,350 nM
2,B5,100 nM
3,B22,850 nM
4,B6,92 nM
5,B7,97 nM
6,B8,110 nM
7,B10,86 nM
8,B11,94 nM
9,B12,160 nM
10,B13,80 nM
11,B14,120 nM
12,B23,6300 nM
13,B17,510 nM
14,B18,91 nM
15,B19,120 nM
16,B20,270 nM

# Molecular target: T3, FcγRIIb extracellular domain with C-terminal His tag (human, UniProt P31994 43-217)
# T3 construct: extracellular domain; also called FcgRIIb; not shown: His tag at the C terminus
# T3 sequence (looked up): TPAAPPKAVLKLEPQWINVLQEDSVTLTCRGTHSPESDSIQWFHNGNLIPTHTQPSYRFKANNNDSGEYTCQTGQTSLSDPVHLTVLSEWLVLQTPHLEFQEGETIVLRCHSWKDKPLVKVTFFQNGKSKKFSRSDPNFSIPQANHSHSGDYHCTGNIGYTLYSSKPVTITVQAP
# Experiment: SPR, antibody captured, FcgR analyte
row,Binder,Kd
1,B4,92 nM
2,B5,2.9 nM
3,B22,20 nM
4,B6,4 nM
5,B7,2.6 nM
6,B8,2.4 nM
7,B9,25 nM
8,B10,3.1 nM
9,B11,3.2 nM
10,B12,4.1 nM
11,B13,2.6 nM
12,B14,3.8 nM
13,B15,9.7 nM
14,B16,21 nM
15,B23,200 nM
16,B17,18 nM
17,B18,3 nM
18,B19,3.4 nM
19,B20,6.9 nM

# Molecular target: T4, FcgRIIaR (human, UniProt P12318 34-217)
# T4 construct: extracellular domain; also called FcγRIIa R type; FcγRIIa (R type)
# T4 sequence (looked up): T2 sequence (looked up)
# Experiment: SPR, amount bound per captured antibody
row,Binder,Relative FcgRIIaR-binding Activity
1,B24,98.5 IL6R-G1d/IL6R-L=100
2,B25,81.7 IL6R-G1d/IL6R-L=100
3,B26,83.8 IL6R-G1d/IL6R-L=100

# Molecular target: T5, FcgRIIb (human, UniProt P31994 43-217)
# T5 construct: extracellular domain; also called FcγRIIb
# T5 sequence (looked up): T3 sequence (looked up)
# Experiment: SPR, amount bound per captured antibody
row,Binder,Relative FcgRIIb-binding Activity
1,B24,115 IL6R-G1d/IL6R-L=100
2,B25,294 IL6R-G1d/IL6R-L=100
3,B26,305 IL6R-G1d/IL6R-L=100

# Molecular target: T6, human complement C1q (human, UniProt P02745 23-245; P02746 28-253; P02747 29-245)
# T6 construct: Bought (PROSPEC or Calbiochem); also called human C1q
# T6 sequence (P02745 23-245 limits assumed, chain 1 of 3): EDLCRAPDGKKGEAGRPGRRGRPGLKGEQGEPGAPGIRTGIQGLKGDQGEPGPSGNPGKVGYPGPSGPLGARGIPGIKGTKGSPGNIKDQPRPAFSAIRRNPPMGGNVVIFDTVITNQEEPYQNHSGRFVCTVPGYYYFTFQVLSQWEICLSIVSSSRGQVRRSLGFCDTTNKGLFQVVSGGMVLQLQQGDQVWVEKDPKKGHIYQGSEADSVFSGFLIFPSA
# T6 sequence (P02746 28-253 limits assumed, chain 2 of 3): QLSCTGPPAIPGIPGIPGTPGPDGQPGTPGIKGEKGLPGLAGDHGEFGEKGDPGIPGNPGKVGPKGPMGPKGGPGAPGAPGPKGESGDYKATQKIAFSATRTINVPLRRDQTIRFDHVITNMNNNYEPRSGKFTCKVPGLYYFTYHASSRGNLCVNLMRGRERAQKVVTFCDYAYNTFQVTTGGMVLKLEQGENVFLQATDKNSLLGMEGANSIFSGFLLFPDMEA
# T6 sequence (P02747 29-245 limits assumed, chain 3 of 3): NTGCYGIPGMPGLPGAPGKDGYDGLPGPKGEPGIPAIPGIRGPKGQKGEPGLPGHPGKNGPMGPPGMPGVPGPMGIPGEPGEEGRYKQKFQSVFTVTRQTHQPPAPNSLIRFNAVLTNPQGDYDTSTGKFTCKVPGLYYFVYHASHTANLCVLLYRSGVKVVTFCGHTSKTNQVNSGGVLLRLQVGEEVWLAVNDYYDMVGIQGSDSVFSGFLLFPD
# Experiment: SPR, C1q bound per antibody captured on Protein L
# Experimental: The interaction between an antibody and human C1q was analyzed using Biacore T200 (GE Healthcare). HBS-EP+ (GE Healthcare) was used as the running buffer, and the measurement temperature was set at 25° C. Chips produced by immobilizing Protein L (ACTIGEN or BioVision) onto Series S sensor Chip CM4 (GE Healthcare) by amine coupling were used.
# The antibodies of interest were captured onto these sensor chips, and allowed to interact with human complement C1q (PROSPEC or Calbiochem) diluted in the running buffer. The amount of antibody binding was determined, and comparisons were made among the antibodies. However, since the amount of C1q bound depends on the amount of captured antibodies, corrected values obtained by dividing the amount of C1q bound by the amount of each antibody captured were compared. Furthermore, by reaction with 10 mM glycine-HCl, pH 1.5, the antibodies captured onto the sensor chips were washed, and the sensor chips were recycled and reused.
row,Binder,Amount of C1q-binding when that for G1d is Defined as 100
1,B24,15.2 G1d=100
2,B25,33.5 G1d=100

# Molecular target: T7, human FcγRIa extracellular domain with C-terminal His tag (human, UniProt P12314 16-292)
# T7 construct: Whole entry named; also called FcgRIa
# T7 sequence (P12314 16-292): as the sequence (P12314 16-292) above
# Experiment: SPR, KD of IL6R-G1d/IL6R-L divided by KD of variant
row,Binder,Relative FcgRIa-binding Activity
1,B27,0.451

# Molecular target: T8, human FcγRIIa R type extracellular domain with C-terminal His tag (human, UniProt P12318 34-217)
# T8 construct: extracellular domain; also called FcgRIIaR
# T8 sequence (looked up): T2 sequence (looked up)
# Experiment: as above
row,Binder,Relative FcgRIIaR-binding Activity
1,B27,0.92

# Molecular target: T9, human FcγRIIa H type extracellular domain with C-terminal His tag (human, UniProt P12318 34-217)
# T9 construct: extracellular domain; also called FcgRIIaH
# T9 sequence (looked up): T2 sequence (looked up) with R134H
# Experiment: as above
row,Binder,Relative FcgRIIaH-binding Activity
1,B27,0.044

# Molecular target: T10, human FcγRIIb extracellular domain with C-terminal His tag (human, UniProt P31994 43-217)
# T10 construct: extracellular domain; also called FcgRIIb
# T10 sequence (looked up): T3 sequence (looked up)
# Experiment: as above
row,Binder,Relative FcgRIIb-binding Activity
1,B27,75

# Molecular target: T11, human FcγRIIIa V type extracellular domain with C-terminal His tag (human, UniProt P08637 17-208)
# T11 construct: extracellular domain; also called FcgRIIIaV
# T11 sequence (P08637 17-208 F176V): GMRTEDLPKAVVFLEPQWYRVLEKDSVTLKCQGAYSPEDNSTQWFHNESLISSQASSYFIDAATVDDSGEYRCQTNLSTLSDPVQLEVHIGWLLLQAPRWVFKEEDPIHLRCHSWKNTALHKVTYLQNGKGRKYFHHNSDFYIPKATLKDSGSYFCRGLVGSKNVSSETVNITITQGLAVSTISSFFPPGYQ
# Experiment: as above
row,Binder,Relative FcgRIIIaV-binding Activity
1,B27,0.012
